Source: patent publication US20230357348A1 (AstraZeneca / MedImmune, published 2023)
Starred links: 1 amine or outer side, 2 acyl side, 3 side chain; linkers in the order of their positions; H or OH if unused. Non-standard residues stand in square brackets, D forms with d. Groups on a side chain read outwards from the residue. Primed or numbered codes have the meaning given here. No end group written: not given here. *: point of attachment. C20 diacid = O=C(O)CCCCCCCCCCCCCCCCCCC(=O)*; C18 diacid = O=C(O)CCCCCCCCCCCCCCCCC(=O)*; γGlu = O=C(O)[C@H](CCC(=O)[*:2])N[*:1]; αMeF = C[C@](N)(Cc1ccccc1)C(=O)O; PEG4′ = polyethylene glycol; AEEA = NCCOCCOCC(=O)O; Aib = CC(C)(N)C(=O)O

B1: Peptide 29 (peptide)
peptide: H[Aib]QGTFTSDVSK[αMeF]LDSK([AEEA-AEEA-γGlu-C18 diacid])RA[Aib]DFVQWLL[Aib]T-OH
modifications: N-terminus assumed
SMILES: CC(C)C[C@H](NC(=O)[C@H](Cc1c[nH]c2ccccc12)NC(=O)[C@H](CCC(N)=O)NC(=O)[C@@H](NC(=O)[C@H](Cc1ccccc1)NC(=O)[C@H](CC(=O)O)NC(=O)C(C)(C)NC(=O)[C@H](C)NC(=O)[C@H](CCCNC(=N)N)NC(=O)[C@H](CCCCNC(=O)COCCOCCNC(=O)COCCOCCNC(=O)CC[C@H](NC(=O)CCCCCCCCCCCCCCCCC(=O)O)C(=O)O)NC(=O)[C@H](CO)NC(=O)[C@H](CC(=O)O)NC(=O)[C@H](CC(C)C)NC(=O)[C@](C)(Cc1ccccc1)NC(=O)[C@H](CCCCN)NC(=O)[C@H](CO)NC(=O)[C@@H](NC(=O)[C@H](CC(=O)O)NC(=O)[C@H](CO)NC(=O)[C@@H](NC(=O)[C@H](Cc1ccccc1)NC(=O)[C@@H](NC(=O)CNC(=O)[C@H](CCC(N)=O)NC(=O)C(C)(C)NC(=O)[C@@H](N)Cc1c[nH]cn1)[C@@H](C)O)[C@@H](C)O)C(C)C)C(C)C)C(=O)N[C@@H](CC(C)C)C(=O)NC(C)(C)C(=O)N[C@H](C(=O)O)[C@@H](C)O
B2: Peptide 25 (peptide)
peptide: H[Aib]HGS[αMeF]TSDVSK[αMeF]LDSK([AEEA-AEEA-γGlu-γGlu-C20 diacid])AAQD[αMeF]VQ[Aib]IANT-NH2
B3: Peptide 40 (peptide)
peptide: H[Aib]QGTFTSDVSK[αMeF]LDSK([AEEA-AEEA-γGlu-C18 diacid])RAQDFVQWLL[Aib]T-OH
modifications: N-terminus assumed
SMILES: CC(C)C[C@H](NC(=O)[C@H](Cc1c[nH]c2ccccc12)NC(=O)[C@H](CCC(N)=O)NC(=O)[C@@H](NC(=O)[C@H](Cc1ccccc1)NC(=O)[C@H](CC(=O)O)NC(=O)[C@H](CCC(N)=O)NC(=O)[C@H](C)NC(=O)[C@H](CCCNC(=N)N)NC(=O)[C@H](CCCCNC(=O)COCCOCCNC(=O)COCCOCCNC(=O)CC[C@H](NC(=O)CCCCCCCCCCCCCCCCC(=O)O)C(=O)O)NC(=O)[C@H](CO)NC(=O)[C@H](CC(=O)O)NC(=O)[C@H](CC(C)C)NC(=O)[C@](C)(Cc1ccccc1)NC(=O)[C@H](CCCCN)NC(=O)[C@H](CO)NC(=O)[C@@H](NC(=O)[C@H](CC(=O)O)NC(=O)[C@H](CO)NC(=O)[C@@H](NC(=O)[C@H](Cc1ccccc1)NC(=O)[C@@H](NC(=O)CNC(=O)[C@H](CCC(N)=O)NC(=O)C(C)(C)NC(=O)[C@@H](N)Cc1c[nH]cn1)[C@@H](C)O)[C@@H](C)O)C(C)C)C(C)C)C(=O)N[C@@H](CC(C)C)C(=O)NC(C)(C)C(=O)N[C@H](C(=O)O)[C@@H](C)O
B4: Peptide 24 (peptide)
peptide: H[Aib]HGS[αMeF]TSDVSK[αMeF]LDSK([AEEA-AEEA-γGlu-C18 diacid])AAQD[αMeF]VQ[Aib]IANT-NH2
modifications: N-terminus assumed
SMILES: CC[C@H](C)[C@H](NC(=O)C(C)(C)NC(=O)[C@H](CCC(N)=O)NC(=O)[C@@H](NC(=O)[C@](C)(Cc1ccccc1)NC(=O)[C@H](CC(=O)O)NC(=O)[C@H](CCC(N)=O)NC(=O)[C@H](C)NC(=O)[C@H](C)NC(=O)[C@H](CCCCNC(=O)COCCOCCNC(=O)COCCOCCNC(=O)CC[C@H](NC(=O)CCCCCCCCCCCCCCCCC(=O)O)C(=O)O)NC(=O)[C@H](CO)NC(=O)[C@H](CC(=O)O)NC(=O)[C@H](CC(C)C)NC(=O)[C@](C)(Cc1ccccc1)NC(=O)[C@H](CCCCN)NC(=O)[C@H](CO)NC(=O)[C@@H](NC(=O)[C@H](CC(=O)O)NC(=O)[C@H](CO)NC(=O)[C@@H](NC(=O)[C@](C)(Cc1ccccc1)NC(=O)[C@H](CO)NC(=O)CNC(=O)[C@H](Cc1c[nH]cn1)NC(=O)C(C)(C)NC(=O)[C@@H](N)Cc1c[nH]cn1)[C@@H](C)O)C(C)C)C(C)C)C(=O)N[C@@H](C)C(=O)N[C@@H](CC(N)=O)C(=O)N[C@H](C(N)=O)[C@@H](C)O
B5: Peptide 31 (peptide)
peptide: H[Aib]QGTFTSDVSK[αMeF]LDSK([AEEA-AEEA-γGlu-C18 diacid])RAQDFVRWLLE[Aib]G-OH
modifications: N-terminus assumed
SMILES: CC(C)C[C@H](NC(=O)[C@H](Cc1c[nH]c2ccccc12)NC(=O)[C@H](CCCNC(=N)N)NC(=O)[C@@H](NC(=O)[C@H](Cc1ccccc1)NC(=O)[C@H](CC(=O)O)NC(=O)[C@H](CCC(N)=O)NC(=O)[C@H](C)NC(=O)[C@H](CCCNC(=N)N)NC(=O)[C@H](CCCCNC(=O)COCCOCCNC(=O)COCCOCCNC(=O)CC[C@H](NC(=O)CCCCCCCCCCCCCCCCC(=O)O)C(=O)O)NC(=O)[C@H](CO)NC(=O)[C@H](CC(=O)O)NC(=O)[C@H](CC(C)C)NC(=O)[C@](C)(Cc1ccccc1)NC(=O)[C@H](CCCCN)NC(=O)[C@H](CO)NC(=O)[C@@H](NC(=O)[C@H](CC(=O)O)NC(=O)[C@H](CO)NC(=O)[C@@H](NC(=O)[C@H](Cc1ccccc1)NC(=O)[C@@H](NC(=O)CNC(=O)[C@H](CCC(N)=O)NC(=O)C(C)(C)NC(=O)[C@@H](N)Cc1c[nH]cn1)[C@@H](C)O)[C@@H](C)O)C(C)C)C(C)C)C(=O)N[C@@H](CC(C)C)C(=O)N[C@@H](CCC(=O)O)C(=O)NC(C)(C)C(=O)NCC(=O)O
B6: Peptide 41 (peptide)
peptide: H[Aib]QGTFTSDYSK[αMeF]LDSK([AEEA-AEEA-γGlu-C18 diacid])RAQDFVQWLV[PEG4′]-NH2
B7: Peptide 23 (peptide)
peptide: H[Aib]HGS[αMeF]TSDVSK[αMeF]LDSK([AEEA-AEEA-γGlu-C18 diacid])AAQD[αMeF]VESIANT-NH2
modifications: N-terminus assumed
SMILES: CC[C@H](C)[C@H](NC(=O)[C@H](CO)NC(=O)[C@H](CCC(=O)O)NC(=O)[C@@H](NC(=O)[C@](C)(Cc1ccccc1)NC(=O)[C@H](CC(=O)O)NC(=O)[C@H](CCC(N)=O)NC(=O)[C@H](C)NC(=O)[C@H](C)NC(=O)[C@H](CCCCNC(=O)COCCOCCNC(=O)COCCOCCNC(=O)CC[C@H](NC(=O)CCCCCCCCCCCCCCCCC(=O)O)C(=O)O)NC(=O)[C@H](CO)NC(=O)[C@H](CC(=O)O)NC(=O)[C@H](CC(C)C)NC(=O)[C@](C)(Cc1ccccc1)NC(=O)[C@H](CCCCN)NC(=O)[C@H](CO)NC(=O)[C@@H](NC(=O)[C@H](CC(=O)O)NC(=O)[C@H](CO)NC(=O)[C@@H](NC(=O)[C@](C)(Cc1ccccc1)NC(=O)[C@H](CO)NC(=O)CNC(=O)[C@H](Cc1c[nH]cn1)NC(=O)C(C)(C)NC(=O)[C@@H](N)Cc1c[nH]cn1)[C@@H](C)O)C(C)C)C(C)C)C(=O)N[C@@H](C)C(=O)N[C@@H](CC(N)=O)C(=O)N[C@H](C(N)=O)[C@@H](C)O

Tests used:
[1] = molecular target: human GLP-1 receptor (hGLP-1R) (human, UniProt P43220 24-463); experiment: cell-based or functional assay
[2] = molecular target: human glucagon receptor (hGCGR) (human, UniProt P47871 26-477); experiment: cell-based or functional assay
Chain of human glucagon receptor (hGCGR) (P47871 26-477): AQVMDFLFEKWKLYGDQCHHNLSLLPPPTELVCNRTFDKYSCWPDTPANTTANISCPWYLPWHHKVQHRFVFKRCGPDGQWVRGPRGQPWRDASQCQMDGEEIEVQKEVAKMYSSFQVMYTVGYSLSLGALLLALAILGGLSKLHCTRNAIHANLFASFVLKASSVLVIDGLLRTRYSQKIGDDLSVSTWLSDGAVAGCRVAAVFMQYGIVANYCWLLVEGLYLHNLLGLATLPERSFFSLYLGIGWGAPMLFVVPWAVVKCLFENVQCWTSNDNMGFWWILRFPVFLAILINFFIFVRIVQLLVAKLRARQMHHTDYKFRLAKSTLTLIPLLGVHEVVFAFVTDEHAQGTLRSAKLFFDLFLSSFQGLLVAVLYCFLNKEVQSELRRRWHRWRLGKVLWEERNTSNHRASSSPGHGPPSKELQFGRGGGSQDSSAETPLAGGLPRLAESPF

Row | Binder | hGLP-1R EC50 (pM) [1] [pM] | hGluc-R EC50 (pM) [2] [pM]
1 | B1 | 107 | 629
2 | B2 | 726 | 1310
3 | B3 | 29.9 | 123
4 | B4 | 82.8 | 101
5 | B5 | 41.3 | 56.8
6 | B6 | 663 | 5740
7 | B7 | 266 | 321
